Reference: article PMC2898518

Legend:
p53 wild-type [1] = biological target: T1, p53 wild-type (UniProt P04637 1-393); experiment: filter binding
p53 wild-type [2] = biological target: T1, p53 wild-type; experiment: EMSA

T1 sequence (P04637 whole entry): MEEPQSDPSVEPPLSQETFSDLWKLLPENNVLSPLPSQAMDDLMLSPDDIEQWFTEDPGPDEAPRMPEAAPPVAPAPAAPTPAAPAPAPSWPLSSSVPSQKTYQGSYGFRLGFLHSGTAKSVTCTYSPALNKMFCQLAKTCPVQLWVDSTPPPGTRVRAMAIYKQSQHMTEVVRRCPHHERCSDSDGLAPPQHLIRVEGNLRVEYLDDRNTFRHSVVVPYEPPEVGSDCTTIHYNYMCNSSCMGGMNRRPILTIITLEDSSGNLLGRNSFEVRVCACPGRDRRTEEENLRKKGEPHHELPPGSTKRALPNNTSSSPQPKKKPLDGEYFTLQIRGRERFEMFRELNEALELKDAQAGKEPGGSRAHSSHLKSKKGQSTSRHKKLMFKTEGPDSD

B1: p21 site 32-mer (dsDNA)
DNA 1: TAGAGCGAACATGTCCCAACATGTTGGCGTCG
DNA 2: CGACGCCAACATGTTGGGACATGTTCGCTCTA
binding signal (p53 wild-type [1]): 1 fold (reference)

B2: 66-bp circular wild-type GADD45 (dsDNA)
DNA 1: AGCTGATATCGAATTCTCGAGCAGAACATGTCTAAGCATGCTGGGCTCGAGAATTCCTGCAGCGCT
DNA 2: AGCGCTGCAGGAATTCTCGAGCCCAGCATGCTTAGACATGTTCTGCTCGAGAATTCGATATCAGCT
binding signal (p53 wild-type [2]): 1 fold (reference)

B3: 66-bp circular mutant GADD45 (dsDNA)
DNA 1: AGCTGATATCGAATTCTCGAGCAGAAAATTTCTAAGAATTCTGGGCTCGAGAATTCCTGCAGCGCT
DNA 2: AGCGCTGCAGGAATTCTCGAGCCCAGAATTCTTAGAAATTTTCTGCTCGAGAATTCGATATCAGCT
binding signal (p53 wild-type [2]): 1 fold (reference)
